Consider one substance from paper PMC7210961.

In assay [1] the target is human Nav1.7 (hNav1.7), wild type (human) (UniProt Q15858).
In assay [2] the target is Nav1.8/1.7 DII s3b-s4 chimaera (reverse chimaera: DII s3b-s4 of Nav1.7 built into Nav1.8) (rat | human).
For the next assay, the target named is hNav1.7 E818R (human) (UniProt Q15858).
Assay [3] concerns the target human Nav1.9 with C-terminal GFP (hNav1.9-GFP), wild type (human) (UniProt Q9UI33).

Consider “HpTx1 (spider peptide toxin; rational nomenclature κ-sparatoxin-Hv1a) (from UniProt P58425 1-33)”, for which the dose-dependent inhibition of hNav1.7 currents in HEK293T cells (whole-cell patch clamp), IC50 in assay [1] amounted to 510 nM. This substance also came in with a dose-dependent inhibition of the currents of the reverse chimaeric channel by HpTx1 (whole-cell patch clamp), IC50 in assay [2] of 3000 nM. This substance also gave a fold reduction in HpTx1 activity (IC50 of current inhibition) against WT hNav1.7 (whole-cell patch clamp) in the assay with hNav1.7 E818R (human) of 20 fold. Besides, the inhibition of the fast inactivation of hNav1.9 currents in ND7/23 cells, dose-response (whole-cell patch clamp), EC50 in assay [3] was 470 nM.
